Patent US20230092787A1 (UNIVERSITY OF VIRGINIA PATENT FOUNDATION, published 2023)

Key:
[1] = biological target: T1, integrin alphav beta3 (αvβ3), human, on tumor cell lines (human, UniProt P06756 31-1048; P05106 27-788); experiment: flow cytometry, PE-LM609 on GBM U87 cells
T1 construct: whole, on cells; Endogenous heterodimer on human DIPG and GBM tumor cell lines; also called integrin αvβ3; ITGAV/ITGB3
Experimental: (§1) Human T cell analysis of ex vivo expanded CAR T cells, and T cells isolated from mouse blood, brain, and spleen was performed using antibodies against CD3 (HIT3a), CD4 (OKT4), CD8 (SK1), CD45RO (UCH1.1), CD45RA (H100), CCR7 (G043H7), CD127 (A019D5), PD-1 (EH12.2H7), LAG-3 (11C3C65), TIM-3 (F38-2E2), CD45 (2D1), and TCF-1 (7F11A10) (from BioLegend, San Diego, Calif., United States of America). Expression of integrin αᵥβ₃ CAR was detected using biotinylated protein L (Thermo Fisher Scientific, Waltham, Mass., United States of America) followed by streptavidin-conjugated PE (BioLegend, San Diego, Calif., United States of America). […] Sample data was acquired on a NovoCyte 3005 Flow Cytometer (ACEA Biosciences Inc., San Diego, Calif., United States of America) and analyzed using data analysis software sold under the tradename FLOWJO™ v10 (FlowJo LLC, Ashland, Oreg., United States of America).
(§2) Tumor cell line expression of integrin αᵥβ₃ was measured by flow cytometry. More particularly, cell surface expression of integrin αᵥβ₃ was evaluated by flow cytometry staining with phycoerythrin-conjugated anti-integrin αᵥβ₃ monoclonal antibody (clone LM609) on diffuse intrinsic pontine glioma (DIPG), neuroblastoma, glioblastoma (GBM), triple-negative breast, bladder, rhabdomyosarcoma (RMS), lung, cervical squamous cell carcinoma, and melanoma tumor cell lines. […]

[2] = biological target: T1, integrin alphav beta3 (αvβ3), human, on …; experiment: flow cytometry, PE-LM609 on GBM U251 cells
Experimental: as §1, §2

[3] = biological target: T1, integrin alphav beta3 (αvβ3), human, on …; experiment: flow cytometry, PE-LM609 on SU-DIPG-17 cells
Experimental: as §1, §2

[4] = biological target: T1, integrin alphav beta3 (αvβ3), human, on …; experiment: flow cytometry, PE-LM609 on SU-DIPG-21 cells
Experimental: as §1, §2

[5] = biological target: T1, integrin alphav beta3 (αvβ3), human, on …; experiment: flow cytometry, PE-LM609 on SU-DIPG-27 cells
Experimental: as §1, §2

[6] = biological target: T1, integrin alphav beta3 (αvβ3), human, on …; experiment: flow cytometry, PE-LM609 on SU-DIPG-36 cells
Experimental: as §1, §2

[7] = biological target: T1, integrin alphav beta3 (αvβ3), human, on …; experiment: flow cytometry, PE-LM609 on SU-DIPG-IV cells
Experimental: as §1, §2

[8] = biological target: T1, integrin alphav beta3 (αvβ3), human, on …; experiment: flow cytometry, PE-LM609 on SU-DIPG-XIII cells
Experimental: as §1, §2

T1 sequence (P06756 31-1048, chain 1 of 2): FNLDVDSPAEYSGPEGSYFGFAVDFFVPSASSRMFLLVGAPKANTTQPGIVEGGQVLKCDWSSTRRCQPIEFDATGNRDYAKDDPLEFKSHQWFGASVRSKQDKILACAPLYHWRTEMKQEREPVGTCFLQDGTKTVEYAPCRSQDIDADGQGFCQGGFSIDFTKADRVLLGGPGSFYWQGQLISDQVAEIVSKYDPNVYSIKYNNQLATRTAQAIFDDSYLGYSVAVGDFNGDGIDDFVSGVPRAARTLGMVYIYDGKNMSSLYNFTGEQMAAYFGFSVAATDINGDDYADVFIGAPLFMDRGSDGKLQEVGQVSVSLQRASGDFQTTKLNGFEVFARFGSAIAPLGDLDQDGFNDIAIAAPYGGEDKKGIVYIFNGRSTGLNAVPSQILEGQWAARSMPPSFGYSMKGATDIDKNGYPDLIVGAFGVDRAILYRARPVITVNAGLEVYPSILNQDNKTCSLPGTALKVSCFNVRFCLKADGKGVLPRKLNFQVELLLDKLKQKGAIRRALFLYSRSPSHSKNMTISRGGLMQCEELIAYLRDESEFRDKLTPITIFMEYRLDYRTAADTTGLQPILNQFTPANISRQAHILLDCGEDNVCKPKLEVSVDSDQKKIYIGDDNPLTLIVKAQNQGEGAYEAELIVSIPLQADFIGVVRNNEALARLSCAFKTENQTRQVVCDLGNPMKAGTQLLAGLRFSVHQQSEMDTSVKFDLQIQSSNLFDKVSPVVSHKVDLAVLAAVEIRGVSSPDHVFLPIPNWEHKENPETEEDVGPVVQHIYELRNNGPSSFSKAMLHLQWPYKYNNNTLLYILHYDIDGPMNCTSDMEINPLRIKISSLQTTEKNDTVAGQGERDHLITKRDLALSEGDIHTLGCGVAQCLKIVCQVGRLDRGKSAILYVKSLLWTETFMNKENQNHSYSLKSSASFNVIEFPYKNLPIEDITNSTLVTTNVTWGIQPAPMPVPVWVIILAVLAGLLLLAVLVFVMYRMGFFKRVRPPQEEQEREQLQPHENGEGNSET
T1 sequence (P05106 27-788, chain 2 of 2): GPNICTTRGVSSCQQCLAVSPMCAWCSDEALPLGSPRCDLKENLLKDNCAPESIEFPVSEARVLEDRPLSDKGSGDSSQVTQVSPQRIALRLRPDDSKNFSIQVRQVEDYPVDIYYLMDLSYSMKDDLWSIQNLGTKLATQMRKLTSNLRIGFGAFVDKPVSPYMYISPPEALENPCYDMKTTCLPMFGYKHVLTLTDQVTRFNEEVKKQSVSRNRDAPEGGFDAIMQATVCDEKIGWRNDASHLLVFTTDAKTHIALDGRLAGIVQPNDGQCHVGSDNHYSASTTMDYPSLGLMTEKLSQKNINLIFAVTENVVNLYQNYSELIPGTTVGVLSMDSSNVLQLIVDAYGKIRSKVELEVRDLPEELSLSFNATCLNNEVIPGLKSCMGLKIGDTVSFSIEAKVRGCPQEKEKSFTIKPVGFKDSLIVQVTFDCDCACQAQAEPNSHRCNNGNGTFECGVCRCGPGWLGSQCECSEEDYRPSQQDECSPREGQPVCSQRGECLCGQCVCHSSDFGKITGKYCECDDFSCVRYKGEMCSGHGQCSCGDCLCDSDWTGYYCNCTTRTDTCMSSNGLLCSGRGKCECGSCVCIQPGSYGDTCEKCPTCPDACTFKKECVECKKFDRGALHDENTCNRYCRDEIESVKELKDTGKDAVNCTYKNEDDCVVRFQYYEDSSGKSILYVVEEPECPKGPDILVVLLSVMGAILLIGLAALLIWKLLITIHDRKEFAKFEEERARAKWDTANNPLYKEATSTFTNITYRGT

B1: phycoerythrin-conjugated anti-integrin αvβ3 monoclonal antibody (clone LM609) (antibody, V domains shown)
VH: EVQLEESGGGLVKPGGSLKLSCAASGFAFSSYDMSWVRQIPEKRLEWVAKVSSGGGSTYYLDTVQGRFTISRDNAKNTLYLQMSSLNSEDTAMYYCARHNYGSFAYWGQGTLVTVSA
VL: ELVMTQTPATLSVTPGDSVSLSCRASQSISNHLHWYQQKSHESPRLLIKYASQSISGIPSRFSGSGSGTDFTLSINSVETEDFGMYFCQQSNSWPHTFGGGTKLEIK
notes: Bought reagent (Millipore Sigma), conjugated to phycoerythrin; also called PE-conjugated anti-integrin αvβ3 antibody (LM609; Millipore Sigma)
- MFI ratio (MFI/MFI isotype control) [1]: 17
- MFI ratio (MFI/MFI isotype control) [2]: 2
- MFI ratio (MFI/MFI isotype control) [3]: 5
- MFI ratio (MFI/MFI isotype control) [4]: 6
- MFI ratio (MFI/MFI isotype control) [5]: 4
- MFI ratio (MFI/MFI isotype control) [6]: 16
- MFI ratio (MFI/MFI isotype control) [7]: 8
- MFI ratio (MFI/MFI isotype control) [8]: 5
